In paper PMC10786891, “Massively parallel profiling of RNA-targeting CRISPR-Cas13d”:

T1: EsCas13d, nuclease-dead (Eubacterium siraeum, UniProt B0MS50, R295A;H300A;R849A;H854A)
T1 sequence: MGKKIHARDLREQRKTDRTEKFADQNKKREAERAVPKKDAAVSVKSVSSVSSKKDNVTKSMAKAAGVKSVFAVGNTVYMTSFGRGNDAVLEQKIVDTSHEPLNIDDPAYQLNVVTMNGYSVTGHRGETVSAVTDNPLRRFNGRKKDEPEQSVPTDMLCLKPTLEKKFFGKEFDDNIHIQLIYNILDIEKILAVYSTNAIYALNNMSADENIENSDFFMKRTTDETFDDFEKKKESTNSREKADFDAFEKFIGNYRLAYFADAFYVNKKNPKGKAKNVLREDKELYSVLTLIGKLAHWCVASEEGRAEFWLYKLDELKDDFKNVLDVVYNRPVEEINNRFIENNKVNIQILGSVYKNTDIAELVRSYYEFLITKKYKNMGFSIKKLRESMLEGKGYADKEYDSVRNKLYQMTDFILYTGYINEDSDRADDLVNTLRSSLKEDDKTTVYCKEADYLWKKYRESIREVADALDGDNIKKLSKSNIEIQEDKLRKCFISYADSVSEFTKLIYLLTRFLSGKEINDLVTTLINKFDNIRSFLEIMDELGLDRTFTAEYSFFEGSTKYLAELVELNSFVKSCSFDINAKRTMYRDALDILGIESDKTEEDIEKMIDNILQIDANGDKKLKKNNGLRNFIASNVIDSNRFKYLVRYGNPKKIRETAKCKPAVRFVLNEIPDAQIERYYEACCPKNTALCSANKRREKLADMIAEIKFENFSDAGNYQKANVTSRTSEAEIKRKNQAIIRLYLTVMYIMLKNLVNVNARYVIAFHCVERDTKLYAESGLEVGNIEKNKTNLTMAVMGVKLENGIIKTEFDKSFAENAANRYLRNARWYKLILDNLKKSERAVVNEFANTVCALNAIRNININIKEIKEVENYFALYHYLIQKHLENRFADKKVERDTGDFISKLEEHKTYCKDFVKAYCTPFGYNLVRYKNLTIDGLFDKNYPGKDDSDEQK


These binders were tested against T1, EsCas13d, nuclease-dead (assay: crRNA (strand 1, pre-loaded); Mg2+; 40 mM Tris-HCl pH 7.5, 150 mM NaCl, 6 mM MgCl2, 1 mM DTT, 0.1% Tween-20, 0.2 mg/ml BSA; 25 C; 10 min per concentration, then washed). Settings: tags: His6-TwinStrep-SUMO cleaved; N-terminal SNAP kept (SNAP-Surface 488); label: 3' end held by stalled T7 RNA polymerase.

Binder | Kd [nM]
target 1 insG 3' of 1,insC 3' of 1 (mixed) RNA 1: CACCCGUGCAAAAAUGCAGGGGUCUAAAACUGAGCGGAUAACCUCUCUAUGG RNA 2: GGGAAUGGAUCCACAUCUACGAAUUCGUACCAUAGAGAGGUUAUCCGCUCAGCCCGAGAUCGGAAGAGCACACGU | 11 ± 1.4
target 1 insG 3' of 22,insU 3' of 12 (mixed) RNA 1: CACCCGUGCAAAAAUGCAGGGGUCUAAAACUGAGCGGAUAACCUCUCUAUGG RNA 2: GGGAAUGGAUCCACAUCUACGAAUUCGUACGCAUAGAGAGGUUUAUCCGCUCACCGAGAUCGGAAGAGCACACGU | 20.5 ± 1.8
target 2 MT 5'PFS GAU 3'PFS AGG (mixed) RNA 1: CACCCGUGCAAAAUUGCAGGGGUCUAAAACCUUCUCCAAAUUGUUUCAUCCU RNA 2: GGGAAUGGAUCCACAUCUACGAAUUCGAUAGGAUGAAACAAUUUGGAGAAGAGGAGAUCGGAAGAGCACACGU | 10.4 ± 1
target 2 MT 5'PFS UAU 3'PFS CUU (mixed) RNA 1: CACCCGUGCAAAAUUGCAGGGGUCUAAAACCUUCUCCAAAUUGUUUCAUCCU RNA 2: GGGAAUGGAUCCACAUCUACGAAUUCUAUAGGAUGAAACAAUUUGGAGAAGCUUAGAUCGGAAGAGCACACGU | 54 ± 14
target 2 MT 5'PFS UCA 3'PFS AUC (mixed) RNA 1: CACCCGUGCAAAAUUGCAGGGGUCUAAAACCUUCUCCAAAUUGUUUCAUCCU RNA 2: GGGAAUGGAUCCACAUCUACGAAUUCUCAAGGAUGAAACAAUUUGGAGAAGAUCAGAUCGGAAGAGCACACGU | 3.6 ± 0.6
target 2 MT 5'PFS GCG 3'PFS CAU (mixed) RNA 1: CACCCGUGCAAAAUUGCAGGGGUCUAAAACCUUCUCCAAAUUGUUUCAUCCU RNA 2: GGGAAUGGAUCCACAUCUACGAAUUCGCGAGGAUGAAACAAUUUGGAGAAGCAUAGAUCGGAAGAGCACACGU | 13 ± 4
target 2 MT 5'PFS UCG 3'PFS CAU (mixed) RNA 1: CACCCGUGCAAAAUUGCAGGGGUCUAAAACCUUCUCCAAAUUGUUUCAUCCU RNA 2: GGGAAUGGAUCCACAUCUACGAAUUCUCGAGGAUGAAACAAUUUGGAGAAGCAUAGAUCGGAAGAGCACACGU | ~30
target 2 MT 5'PFS UCA 3'PFS AUA (mixed) RNA 1: CACCCGUGCAAAAUUGCAGGGGUCUAAAACCUUCUCCAAAUUGUUUCAUCCU RNA 2: GGGAAUGGAUCCACAUCUACGAAUUCUCAAGGAUGAAACAAUUUGGAGAAGAUAAGAUCGGAAGAGCACACGU | 6.2 ± 2
target 2 MT 5'PFS GCG 3'PFS CAC (mixed) RNA 1: CACCCGUGCAAAAUUGCAGGGGUCUAAAACCUUCUCCAAAUUGUUUCAUCCU RNA 2: GGGAAUGGAUCCACAUCUACGAAUUCGCGAGGAUGAAACAAUUUGGAGAAGCACAGAUCGGAAGAGCACACGU | 10.4 ± 1.3
target 2 MT 5'PFS GAU 3'PFS AGC (mixed) RNA 1: CACCCGUGCAAAAUUGCAGGGGUCUAAAACCUUCUCCAAAUUGUUUCAUCCU RNA 2: GGGAAUGGAUCCACAUCUACGAAUUCGAUAGGAUGAAACAAUUUGGAGAAGAGCAGAUCGGAAGAGCACACGU | 7.1 ± 0.6
target 2 MT 5'PFS UGU 3'PFS CCG (mixed) RNA 1: CACCCGUGCAAAAUUGCAGGGGUCUAAAACCUUCUCCAAAUUGUUUCAUCCU RNA 2: GGGAAUGGAUCCACAUCUACGAAUUCUGUAGGAUGAAACAAUUUGGAGAAGCCGAGAUCGGAAGAGCACACGU | 12.6 ± 1.4
target 2 MT 5'PFS GUA 3'PFS CGC (mixed) RNA 1: CACCCGUGCAAAAUUGCAGGGGUCUAAAACCUUCUCCAAAUUGUUUCAUCCU RNA 2: GGGAAUGGAUCCACAUCUACGAAUUCGUAAGGAUGAAACAAUUUGGAGAAGCGCAGAUCGGAAGAGCACACGU | 7.4 ± 0.5
target 2 MT 5'PFS UAU 3'PFS CUC (mixed) RNA 1: CACCCGUGCAAAAUUGCAGGGGUCUAAAACCUUCUCCAAAUUGUUUCAUCCU RNA 2: GGGAAUGGAUCCACAUCUACGAAUUCUAUAGGAUGAAACAAUUUGGAGAAGCUCAGAUCGGAAGAGCACACGU | 38 ± 7
target 2 MT 5'PFS GAG 3'PFS UAU (mixed) RNA 1: CACCCGUGCAAAAUUGCAGGGGUCUAAAACCUUCUCCAAAUUGUUUCAUCCU RNA 2: GGGAAUGGAUCCACAUCUACGAAUUCGAGAGGAUGAAACAAUUUGGAGAAGUAUAGAUCGGAAGAGCACACGU | 5.6 ± 0.5
target 2 MT 5'PFS GUU 3'PFS CAU (mixed) RNA 1: CACCCGUGCAAAAUUGCAGGGGUCUAAAACCUUCUCCAAAUUGUUUCAUCCU RNA 2: GGGAAUGGAUCCACAUCUACGAAUUCGUUAGGAUGAAACAAUUUGGAGAAGCAUAGAUCGGAAGAGCACACGU | 14.2 ± 1.9
target 2 MT 5'PFS UAU 3'PFS CUA (mixed) RNA 1: CACCCGUGCAAAAUUGCAGGGGUCUAAAACCUUCUCCAAAUUGUUUCAUCCU RNA 2: GGGAAUGGAUCCACAUCUACGAAUUCUAUAGGAUGAAACAAUUUGGAGAAGCUAAGAUCGGAAGAGCACACGU | 22.7 ± 2.8
target 2 MT 5'PFS GGC 3'PFS UUU (mixed) RNA 1: CACCCGUGCAAAAUUGCAGGGGUCUAAAACCUUCUCCAAAUUGUUUCAUCCU RNA 2: GGGAAUGGAUCCACAUCUACGAAUUCGGCAGGAUGAAACAAUUUGGAGAAGUUUAGAUCGGAAGAGCACACGU | 27 ± 5
target 2 MT 5'PFS AAA 3'PFS AAG (mixed) RNA 1: CACCCGUGCAAAAUUGCAGGGGUCUAAAACCUUCUCCAAAUUGUUUCAUCCU RNA 2: GGGAAUGGAUCCACAUCUACGAAUUCAAAAGGAUGAAACAAUUUGGAGAAGAAGAGAUCGGAAGAGCACACGU | 4 ± 0.5
target 2 MT 5'PFS GUA 3'PFS CGA (mixed) RNA 1: CACCCGUGCAAAAUUGCAGGGGUCUAAAACCUUCUCCAAAUUGUUUCAUCCU RNA 2: GGGAAUGGAUCCACAUCUACGAAUUCGUAAGGAUGAAACAAUUUGGAGAAGCGAAGAUCGGAAGAGCACACGU | 6.4 ± 0.5
target 2 MT 5'PFS GAU 3'PFS AGA (mixed) RNA 1: CACCCGUGCAAAAUUGCAGGGGUCUAAAACCUUCUCCAAAUUGUUUCAUCCU RNA 2: GGGAAUGGAUCCACAUCUACGAAUUCGAUAGGAUGAAACAAUUUGGAGAAGAGAAGAUCGGAAGAGCACACGU | 8 ± 1.1
target 2 MT 5'PFS UCA 3'PFS AUG (mixed) RNA 1: CACCCGUGCAAAAUUGCAGGGGUCUAAAACCUUCUCCAAAUUGUUUCAUCCU RNA 2: GGGAAUGGAUCCACAUCUACGAAUUCUCAAGGAUGAAACAAUUUGGAGAAGAUGAGAUCGGAAGAGCACACGU | 4 ± 1
target 2 MT 5'PFS UCA 3'PFS AUU (mixed) RNA 1: CACCCGUGCAAAAUUGCAGGGGUCUAAAACCUUCUCCAAAUUGUUUCAUCCU RNA 2: GGGAAUGGAUCCACAUCUACGAAUUCUCAAGGAUGAAACAAUUUGGAGAAGAUUAGAUCGGAAGAGCACACGU | 4.4 ± 0.5
target 2 MT 5'PFS GUU 3'PFS CAG (mixed) RNA 1: CACCCGUGCAAAAUUGCAGGGGUCUAAAACCUUCUCCAAAUUGUUUCAUCCU RNA 2: GGGAAUGGAUCCACAUCUACGAAUUCGUUAGGAUGAAACAAUUUGGAGAAGCAGAGAUCGGAAGAGCACACGU | 10.9 ± 0.9
target 2 MT 5'PFS GAA 3'PFS CCG (mixed) RNA 1: CACCCGUGCAAAAUUGCAGGGGUCUAAAACCUUCUCCAAAUUGUUUCAUCCU RNA 2: GGGAAUGGAUCCACAUCUACGAAUUCGAAAGGAUGAAACAAUUUGGAGAAGCCGAGAUCGGAAGAGCACACGU | 10.5 ± 1.2
target 2 MT 5'PFS GAA 3'PFS CCA (mixed) RNA 1: CACCCGUGCAAAAUUGCAGGGGUCUAAAACCUUCUCCAAAUUGUUUCAUCCU RNA 2: GGGAAUGGAUCCACAUCUACGAAUUCGAAAGGAUGAAACAAUUUGGAGAAGCCAAGAUCGGAAGAGCACACGU | 25 ± 6
target 2 MT 5'PFS UAU 3'PFS CUG (mixed) RNA 1: CACCCGUGCAAAAUUGCAGGGGUCUAAAACCUUCUCCAAAUUGUUUCAUCCU RNA 2: GGGAAUGGAUCCACAUCUACGAAUUCUAUAGGAUGAAACAAUUUGGAGAAGCUGAGAUCGGAAGAGCACACGU | 17.4 ± 1.9
target 2 MT 5'PFS GUU 3'PFS CAA (mixed) RNA 1: CACCCGUGCAAAAUUGCAGGGGUCUAAAACCUUCUCCAAAUUGUUUCAUCCU RNA 2: GGGAAUGGAUCCACAUCUACGAAUUCGUUAGGAUGAAACAAUUUGGAGAAGCAAAGAUCGGAAGAGCACACGU | 6.6 ± 0.7
target 2 MT 5'PFS GUU 3'PFS CAC (mixed) RNA 1: CACCCGUGCAAAAUUGCAGGGGUCUAAAACCUUCUCCAAAUUGUUUCAUCCU RNA 2: GGGAAUGGAUCCACAUCUACGAAUUCGUUAGGAUGAAACAAUUUGGAGAAGCACAGAUCGGAAGAGCACACGU | 15.3 ± 2.3
